By Kd is commonly meant the equilibrium constant for the complex coming apart. Lower therefore signals higher affinity.

Results on 5 molecules are retold here after WO2006046344A1 (dated 2006).

Sequences and labels used below:
B1: boPrP-15 (scFv)
chain 1: QVQLVQSGAEVKKPGASVKVSCKASGYTFTSYGISWVRQAPGQGLEWMGWISAYNGNTNYAQKLQGRVTMTTDTSTSTAYMELRSLRSDDTAVYYCARYGGRIAAASYNWFDPWGQGTLAICPDSACLRVWVSWTVDHLVTVSS
chain 2: QSALTQPASVSGSPGQSITISCTGTSSDVGGYNYVSWYQQHPGKAPRLMIYDVSNRPSGVSNRFSGSKSGNTASLTISGLQSEDEADYYCSSYTSSSTLVFGTGTKLTVLG
B2: boPrP-2 (scFv, V domains shown)
VH: QVQLVQSGGGLVQPGRSLRLSCAASGFTFDDYAMHWVRQAPGKGLEWVSGISWNSGSIGYADSVKGRFTISRDNAKNSLYLQMNSLRAEDTALYYCAKGGGSYYYFDYWGQGTLVTVSS
VL: QSVLTQPPSVSGAPGQRVSISCTGNRSNIGAGYDVHWYQQVPGMAPKLLIYGNTKRPSGVPDRFSGSKSGTSASLAITGLQAEDEADYYCQSFDNTLSDSRWVFGGGTKLTVLG
B3: huPrP-18 (scFv, V domains shown)
VH: QVQLVQSGAEVKKPGASVKVSCKASGYTFTSYPIHWVRQAPGQRLEWMGWLNPGTGVTKYSQNFQGRVTLTSDTSANTAYLELSSLRSEDTALYYCTRDPLDSRKNWFDPWGQGTLVTVSS
VL: SYVLTQPPSASGTPGQRVTISCSGSNSNIGTNFVYWYQQLPGTAPKLLIYRNNQRPSGVPDRFSGSKSGTSASLAISGLRSEDEADYYCAAWDDSLSGRVFGGGTQLTVLG
B4: boPrP-20 (scFv, V domains shown)
VH: QVQLVQSGGGLVQPGRSLRLSCAASGFTFDDYAMHWVRQAPGKGLEWVSGISWNSGSIGYADSVKGRFTISRDNAKNSLYLQMNSLRAEDTALYYCAKQGDEAAAGTGFDYWGQGTLVTVSS
VL: QSVLTQPPSASAAPGQGVTISCSGSSSNIGTNTVAWYQHLPETAPKLLIYHDSQRPSRVPGRVSGSKSGTSASLAISRLQSDDEADYYCATWDDSLNGWVFGGGTKLTVLG
B5: huPrP-39 (scFv, V domains shown)
VH: EVQLVQSGGGLVQPGRSLRLSCAASGFTFGDYAMSWVRQAPGKGPEWIATISSSGDILDYADSVRGRFSISRDNAQRSLHLQMTSLRPDDSAIYYCAREYFFSFDVWGRGTTVTVSS
VL: QSVLAQPPSLSVSPGQTARITCSGDGVGSGFVSWYQQRPGQSPSVVIYDDAKRPSGIPERFSGSNSGDTATLTISESRAVDEADYYCQTWDSRSPVFGGGTKVTVLG

The first assay deals with human α form prion (human, UniProt P04156 90-230).
Consider B1, for which the affinity, expressed as Kd, was 7.8 nM.
In turn, B2 displayed a Kd of 110 nM.
The same measure, in the same setting: the value for B3 was 20 nM; that for B4 was 36 nM; that for B5 was 33 nM.

In a further assay the target is bovine α form prion (bovine, UniProt P10279 102-241).
For B1, the affinity, expressed as Kd, was 4.6 nM.
Regarding B2, binding was put at a Kd of 410 nM.
Turning to B3, the equilibrium dissociation constant (Kd) amounted to 60 nM.
On the same count and under the same terms, the value for B5 was 29 nM.
